# PMC4191409, “AP endonucleases process 5-methylcytosine excision intermediates during active DNA demethylation in Arabidopsis”
# T1: MBP-APE1L (Arabidopsis thaliana (Col-0), UniProt Q5XF07 1-364)
# T1 sequence: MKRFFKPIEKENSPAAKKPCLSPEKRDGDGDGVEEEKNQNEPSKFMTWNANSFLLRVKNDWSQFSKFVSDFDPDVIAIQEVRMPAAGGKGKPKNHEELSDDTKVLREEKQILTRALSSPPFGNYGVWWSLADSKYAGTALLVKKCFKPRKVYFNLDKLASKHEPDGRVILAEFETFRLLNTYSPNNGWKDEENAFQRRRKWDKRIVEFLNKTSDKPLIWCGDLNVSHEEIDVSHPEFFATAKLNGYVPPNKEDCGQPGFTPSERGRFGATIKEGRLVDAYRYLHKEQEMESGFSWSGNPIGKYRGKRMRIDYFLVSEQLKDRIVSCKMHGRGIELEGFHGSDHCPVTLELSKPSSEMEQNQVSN
# T2: MBP-ARP (Arabidopsis thaliana (Col-0), UniProt P45951 1-536)
# T2 sequence: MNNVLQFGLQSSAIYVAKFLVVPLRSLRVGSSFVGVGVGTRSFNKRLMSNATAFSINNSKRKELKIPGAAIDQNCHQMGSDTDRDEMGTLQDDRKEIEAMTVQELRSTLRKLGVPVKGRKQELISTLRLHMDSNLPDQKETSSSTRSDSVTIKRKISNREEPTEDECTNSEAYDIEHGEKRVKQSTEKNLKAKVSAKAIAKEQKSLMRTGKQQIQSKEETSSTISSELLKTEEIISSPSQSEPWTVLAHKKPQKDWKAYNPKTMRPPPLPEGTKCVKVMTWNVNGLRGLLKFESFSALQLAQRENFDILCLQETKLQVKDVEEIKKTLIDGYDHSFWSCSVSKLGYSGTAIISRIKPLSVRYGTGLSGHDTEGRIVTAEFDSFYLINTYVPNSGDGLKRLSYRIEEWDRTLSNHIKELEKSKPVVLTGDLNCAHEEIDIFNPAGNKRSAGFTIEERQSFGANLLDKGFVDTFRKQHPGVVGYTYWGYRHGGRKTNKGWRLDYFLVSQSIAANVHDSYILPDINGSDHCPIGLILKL
# What was measured:
# MBP-APE1L = biological target: T1, MBP-APE1L; test: EMSA; no Mg2+ listed; 100 and 300 nM protein, 50 nM DNA; EMSA: 10 mM Tris-HCl pH 8.0, 150 mM NaCl, 0.05% Triton X-100, 0.1 mg/mL BSA, 10% glycerol, 10 mM DTT; on ice 10 min; 8% native gel; settings: protein: recombinant; tags: N-terminal MBP (HRV 3C site); HisTrap purified; label: 32P (5' end of strand 1); blunt
# MBP-ARP = biological target: T2, MBP-ARP; test: as above; settings: protein: recombinant; tags: N-terminal MBP (HRV 3C site); HisTrap purified; label: 32P (5' end of strand 1); blunt
binder,measurement,setting,value
"F35[5mC]/R35 (5mC 35-mer) (dsDNA, 5-methylcytosine at position 18 of strand 1) DNA 1: GTACTGTGTGATACTATCGAATTCAGTATGATCTG DNA 2: CAGATCATACTGAATTCGATAGTATCACACAGTAC",binding result,MBP-APE1L,binds
same,binding result,MBP-ARP,binds
